Measurements from patent US20230086603A1 (BOLT BIOTHERAPEUTICS, published 2023).

Biological target: T1, human PD-L1 (hPD-L1) (human, UniProt Q9NZQ7 19-290)
T1 construct: Endogenous hPD-L1 on JIMT1 (JIMT-1) cells; also called programmed death-ligand 1; CD274
Test: flow cytometry on JIMT-1 cells expressing endogenous human PD-L1; anti-human IgG Fc secondary; geometric MFI
Procedure: Binding of the binding agents of an embodiment of the invention to human PD-L1 (hPD-L1) on cell surfaces was assessed by incubating the binding agents with JIMT1 cells that express endogenous hPD-L1. Briefly, the binding agents were diluted serially in FACS buffer (PBS+1% FBS+5 mM EDTA, pH 7.4) at 4° C. Diluted binding agents were applied to JIMT1 cells (˜1×10⁵-2×10⁵ per well) and incubated at 4° C. […] After unbound secondary antibody was washed out, cells were resuspended in FACS buffer plus 2% formaldehyde and analyzed by flow cytometry. The intensity of fluorescence, expressed as geometric mean fluorescence intensity, was used to determine anti-PDL1 binding agent binding to hPD-L1 on cell surface.

T1 sequence (Q9NZQ7 19-290 limits assumed): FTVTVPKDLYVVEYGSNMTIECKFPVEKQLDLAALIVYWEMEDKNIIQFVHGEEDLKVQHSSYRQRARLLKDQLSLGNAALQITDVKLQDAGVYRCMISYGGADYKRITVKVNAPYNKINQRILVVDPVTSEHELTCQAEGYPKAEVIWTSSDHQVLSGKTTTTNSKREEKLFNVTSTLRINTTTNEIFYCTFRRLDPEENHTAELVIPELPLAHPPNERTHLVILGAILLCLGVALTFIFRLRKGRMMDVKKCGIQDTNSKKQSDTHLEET

B1: 9 (antibody, V domains shown)
VH: QVQLVQSGAEVKKPGASVKVSCKASGHSFTHYYMHWVRQAPGQGLEWMGWMNPDSGSTGYAQKFQGRVTMTRDTSTSTVYMELSSLRSEDTAVYYCARALFPYPFYYYYMDVWGQGTLVTVSS
VL: DIQMTQSPSSLSASVGDRVTITCRASQGIRNDLGWYQQKPGKAPKLLIYSASNLQSGVPSRFSGSGSGTDFTLTISSLQPEDFATYYCQQANSFPFTFGGGTKVEIK
  binding result: binds

B2: 11 (antibody, V domains shown)
VH: QVQLVQSGAEVKKPGASVKVSCKASGYTFTNYYIHWVRQAPGQGLEWLGWMNPNGDVAGYADSFQGRVTMTRDTSTSTVYMELSSLRSEDTAVYYCAIDSSGWMRNDAFDIWGQGTLVTVSS
VL: DIQMTQSPSSLSASVGDRVTITCRASQGISQYLAWYQQKPGKAPKLLIYGASNLHSGVPSRFSGSGSGTDFTLTISSLQPEDFATYYCQQTFITPLTFGGGTKVEIK
  binding result: binds

B3: 12 (antibody, V domains shown)
VH: QVQLVQSGAEVKKPGASVKVSCKASGGTFSNYMYHWVRQAPGQGLEWMGWISTYHGSTNYAQKFQGRVTMTRDTSTSTVYMELSSLRSEDTAVYYCARDARGYSGYDLWGQGTLVTVSS
VL: DIQMTQSPSSLSASVGDRVTITCRASQIIGNYLAWYQQKPGKAPKLLIYHASILETGVPSRFSGSGSGTDFTLTISSLQPEDFATYYCQQSYSTPTFGGGTKVEIK
  binding result: binds

B4: 13 (antibody, V domains shown)
VH: QVQLVQSGAEVKKPGASVKVSCKASGYPFTSYYMHWVRQAPGQGLEWMGWMNPNSDIAGYAQKFQGRVTMTRDTSTSTVYMELSSLRSEDTAVYYCAREGRHGEYLYWGQGTLVTVSS
VL: DIQMTQSPSSLSASVGDRVTITCRASQIISSYLNWYQQKPGKAPKLLIYAASSLQSGVPSRFSGSGSGTDFTLTISSLQPEDFATYYCQQGFSTPFTFGGGTKVEIK
  binding result: binds

B5: 14 (antibody, V domains shown)
VH: QVQLVQSGAEVKKPGASVKVSCKASGYRFTTYYVHWVRQAPGQGLEWMGWMNPNTVYTGSAQKFQGRVTMTRDTSTSTVYMELSSLRSEDTAVYYCAREGWGSSGYFDYWGQGTLVTVSS
VL: DIQMTQSPSSLSASVGDRVTITCQASQDISNYLNWYQQKPGKAPKLLIYAASSLQSGVPSRFSGSGSGTDFTLTISSLQPEDFATYYCQQSFTNPVTFGGGTKVEIK
  binding result: binds

B6: 16 (antibody, V domains shown)
VH: QVQLVQSGAEVKKPGSSVKVSCKASGGTFSSYAISWVRQAPGQGLEWMGGIIPIFGTANYAQKFQGRVTITADESTSTAYMELSSLRSEDTAVYYCARGGYSYGSFQHWGQGTLVTVSS
VL: DIQMTQSPSSLSASVGDRVTITCRASQGISNNLNWYQQKPGKAPKLLIYAATTLQSGVPSRFSGSGSGTDFTLTISSLQPEDFATYYCQQSYSTPYTFGGGTKVEIK
  binding result: binds

B7: 36 (antibody, V domains shown)
VH: QVQLVQSGAEVKKPGSSVKVSCKASGGTFSTFGISWVRQAPGQGLEWMGGIIPIFGTANYAQKFQGRVTITADESTSTAYMELSSLRSEDTAVYYCARGGYSYGSFDYWGQGTLVTVSS
VL: DIQMTQSPSSLSASVGDRVTITCRASQGISNNLNWYQQKPGKAPKLLIYATSTLQSGVPSRFSGSGSGTDFTLTISSLQPEDFATYYCQQSYSTPYTFGQGTKVEIK
  binding result: binds

B8: 17 (antibody, V domains shown)
VH: QVQLVQSGAEVKKPGASVKVSCKASGDTFTRHYVHWVRQAPGQGLEWMGWMSPSSGITGYAQKFQGRVTMTRDTSTSTVYMELSSLRSEDTAVYYCARVRWSSDAFDIWGQGTLVTVSS
VL: not shown
  binding result: binds

B9: 2 (antibody, V domains shown)
VH: QVQLVQSGAEVKKPGASVKVSCKASGYTFTSYYMHWVRQAPGQGLEWMGWMNPNSDIAGYAQKFQGRVTMTRDTSTSTVYMELSSLRSEDTAVYYCAIPSIVGAYDAFDIWGQGTLVTVSS
VL: DIQMTQSPSSLSASVGDRVTITCRASQSISSWLAWYQQKPGKAPKLLIYAASSLQSGVPSRFSGSGSGTDFTLTISSLQPEDFATYYCQQSYTTPITFGGGTKVEIK
  binding result: binds

B10: 1 (antibody, V domains shown)
VH: QVQLVQSGAEVKKPGASVKVSCKASGGTFSSYAISWVRQAPGQGLEWMGVINPSAGSTDYAQKFQGRVTMTRDTSTSTVYMELSSLRSEDTAVYYCARDLYPYVVVVAAGSYGMDVWGQGTLVTVSS
VL: DIQMTQSPSSLSASVGDRVTITCRASQGIDSYLAWYQQKPGKAPKLLIYAASSLQSGVPSRFSGSGSGTDFTLTISSLQPEDFATYYCQQSYSTPITFGGGTKVEIK
  binding result: binds

B11: 18 (antibody, V domains shown)
VH: QVQLVQSGAEVKKPGASVKVSCKASGYTFTSYYMHWVRQAPGQGLEWVGWMTPSTGNAGYAQKFQGRVTMTRDTSTSTVYMELSSLRSEDTAVYYCAREEWLGHFQHWGQGTLVTVSS
VL: DIQMTQSPSSLSASVGDRVTITCRASQGISNGLSWYQQKPGKAPKLLIYAASTLQSGVPSRFSGSGSGTDFTLTISSLQPEDFATYYCQQSHSTPLTFGGGTKVEIK
  binding result: binds

B12: 19 (antibody, V domains shown)
VH: QVQLVQSGAEVKKPGASVKVSCKASGYTFTSHYMHWVRQAPGQGLEWMGWMNPNSGNTGYAQKFQGRVTMTRDTSTSTVYMELSSLRSEDTAVYYCARERFLGGMDVWGQGTTVTVSS
VL: DIQMTQSPSSLSASVGDRVTITCRASQSITGWLAWYQQKPGKAPKLLIYAASSLQSGVPSRFSGSGSGTDFTLTISSLQPEDFATYYCQQSYSTPYTFGQGTKVEIK
  binding result: binds

B13: 20 (antibody, V domains shown)
VH: QVQLVQSGAEVKKPGASVKVSCKASGYTFTDYYMHWVRQAPGQGLEWMGWMHPNSGHTGYAQKFQGRVTMTRDTSTSTVNMELSSLRSEDTAVYYCAREEWLGHFQHWGQGTLVTVSS
VL: DIQMTQSPSSLSASVGDRVTITCRASQSISSWLAWYQQKPGKAPKLLIYDATHLETGVPSRFSGSGSGTDFTLTISSLQPEDFATYYCQQSYSTPITFGQGTRLEIK
  binding result: binds

B14: 22 (antibody, V domains shown)
VH: QVQLVQSGAEVKKPGASVKVSCKASGYTFTGYTLHWVRQAPGQGLEWMGWIDPNSGVTSSAQKFQGRVTMTRDTSTSTVYMELSSLRSEDTAVYYCARESEVMMAYFQHWGQGTLVTVSS
VL: DIQMTQSPSSLSASVGDRVTITCQASQDISSYLNWYQQKPGKAPKLLIYAASSLQTGVPSRFSGSGSGTDFTLTISSLQPEDFATYYCQQSYSTPYTFGQGTKLEIK
  binding result: binds

B15: 23 (antibody, V domains shown)
VH: QVQLVQSGAEVKKPGASVKVSCKASGYTFTGYYMHWVRQAPGQGLEWMGWISPNSGVTDFTQKFQGRVTMTRDTSTSTVYMELSSLRSEDTAVYYCARESWSGEFDYWGQGTLVTVSS
VL: DIQMTQSPSSLSASVGDRVTITCRASQSITTYLNWYQQKPGKAPKLLIYAASSLQGGVPSRFSGSGSGTDFTLTISSLQPEDFATYYCQQSYSTPYTFGQGTKVEIK
  binding result: binds

B16: 24 (antibody, V domains shown)
VH: QVQLVQSGAEVKKPGASVKVSCKASGDTFTNHYMHWVRQAPGQGLEWMGWMNPNSGHTGYAQRFQGRVTMTRDTSTSTVYMELSSLRSEDTAVYYCAREAVAGPMDVWGQGTTVTVSS
VL: not shown
  binding result: binds
